US20210246166A1 (Bayer, published 2021)
Numbered stars: 1 amine (or outer) side, 2 acyl side, 3 side chain; on linkers, the order of the positions; unused ones are H or OH. Bridge positions count the residues as written; N and C are the ends. Square brackets hold non-standard residues; d marks the D form. Primed or numbered codes have the meaning given here. Ends that are not written are not given here. * marks the point of attachment. X13 = (2S)‑2‑amino‑3‑(1-methylcyclopropyl)propanoic acid, CC1(C[C@H](N[*:1])C(=O)[*:2])CC1; Tranexamic″ = tranexamic acid, NC[C@H]1CC[C@@H](C(=O)*)CC1; Piperidin‑4‑ylacetic acid = O=C(CC1CCNCC1)*; Oic = O=C(O)[C@@H]1C[C@@H]2CCCC[C@@H]2N1; Cyclopropylacetic acid = O=C(CC1CC1)*; Gly(cPent) = N[C@H](C(=O)O)C1CCCC1; NMeI = CC[C@H](C)[C@H](NC)C(=O)O; tBuAla = CC(C)(C)C[C@H](N)C(=O)O; Chg = N[C@H](C(=O)O)C1CCCCC1; Pen = CC(C)(S)[C@H](N)C(=O)O; NMeC = CN[C@@H](CS)C(=O)O; Sar = CNCC(=O)O

B1: AIC+SRS-((tBu)A)-P-(Oic)-I-((N-Me)C)+IPD-NH2 (peptide)
peptide: AICSRS[tBuAla]P[Oic]I[NMeC]IPD-NH2
modifications: disulfide 3-11; N-terminus assumed
SMILES: CC[C@H](C)[C@H](NC(=O)[C@H](C)N)C(=O)N[C@H]1CSSC[C@@H](C(=O)N[C@H](C(=O)N2CCC[C@H]2C(=O)N[C@@H](CC(=O)O)C(N)=O)[C@@H](C)CC)N(C)C(=O)[C@H]([C@@H](C)CC)NC(=O)[C@@H]2C[C@@H]3CCCC[C@@H]3N2C(=O)[C@@H]2CCCN2C(=O)[C@H](CC(C)(C)C)NC(=O)[C@H](CO)NC(=O)[C@H](CCCNC(=N)N)NC(=O)[C@H](CO)NC1=O
B2: ((N-Me)G)-((N-Me)G)-((N-Me)G)-((N-Me)G)-((N-Me)G)-IC+SRS-((tBu)A)-PPI-(Pen)+IP-NH2 (peptide)
peptide: [Sar][Sar][Sar][Sar][Sar]ICSRS[tBuAla]PPI[Pen]IP-NH2
modifications: disulfide 7-15; N-terminus assumed
SMILES: CC[C@H](C)[C@H](NC(=O)CN(C)C(=O)CN(C)C(=O)CN(C)C(=O)CN(C)C(=O)CNC)C(=O)N[C@H]1CSSC(C)(C)[C@@H](C(=O)N[C@H](C(=O)N2CCC[C@H]2C(N)=O)[C@@H](C)CC)NC(=O)[C@H]([C@@H](C)CC)NC(=O)[C@@H]2CCCN2C(=O)[C@@H]2CCCN2C(=O)[C@H](CC(C)(C)C)NC(=O)[C@H](CO)NC(=O)[C@H](CCCNC(=N)N)NC(=O)[C@H](CO)NC1=O
B3: IC+SRS-((tBu)A)-PPI-(Pen)+IP-OH (peptide)
peptide: ICSRS[tBuAla]PPI[Pen]IP-OH
modifications: disulfide 2-10; N-terminus assumed
SMILES: CC[C@H](C)[C@H](N)C(=O)N[C@H]1CSSC(C)(C)[C@@H](C(=O)N[C@H](C(=O)N2CCC[C@H]2C(=O)O)[C@@H](C)CC)NC(=O)[C@H]([C@@H](C)CC)NC(=O)[C@@H]2CCCN2C(=O)[C@@H]2CCCN2C(=O)[C@H](CC(C)(C)C)NC(=O)[C@H](CO)NC(=O)[C@H](CCCNC(=N)N)NC(=O)[C@H](CO)NC1=O
B4: IC+SRSLP-(Oic)-I-(Pen)+IP-OH (peptide)
peptide: ICSRSLP[Oic]I[Pen]IP-OH
modifications: disulfide 2-10; N-terminus assumed
SMILES: CC[C@H](C)[C@H](N)C(=O)N[C@H]1CSSC(C)(C)[C@@H](C(=O)N[C@H](C(=O)N2CCC[C@H]2C(=O)O)[C@@H](C)CC)NC(=O)[C@H]([C@@H](C)CC)NC(=O)[C@@H]2C[C@@H]3CCCC[C@@H]3N2C(=O)[C@@H]2CCCN2C(=O)[C@H](CC(C)C)NC(=O)[C@H](CO)NC(=O)[C@H](CCCNC(=N)N)NC(=O)[C@H](CO)NC1=O
B5: A-((N-Me)I)-C+SRSLPPIC+IPD-NH2 (peptide)
peptide: A[NMeI]CSRSLPPICIPD-NH2
modifications: disulfide 3-11; N-terminus assumed
SMILES: CC[C@H](C)[C@@H]1NC(=O)[C@@H]2CCCN2C(=O)[C@@H]2CCCN2C(=O)[C@H](CC(C)C)NC(=O)[C@H](CO)NC(=O)[C@H](CCCNC(=N)N)NC(=O)[C@H](CO)NC(=O)[C@@H](NC(=O)[C@H]([C@@H](C)CC)N(C)C(=O)[C@H](C)N)CSSC[C@@H](C(=O)N[C@H](C(=O)N2CCC[C@H]2C(=O)N[C@@H](CC(=O)O)C(N)=O)[C@@H](C)CC)NC1=O
B6: ((N-Me)G)-IC+SRS-((2S)-2-amino-3-(1-methylcyclopropyl)propanoic acid)-P-(Oic)-I-(Pen)+IP-NH2 (peptide)
peptide: [Sar]ICSRS[X13]P[Oic]I[Pen]IP-NH2
modifications: disulfide 3-11; N-terminus assumed
SMILES: CC[C@H](C)[C@H](NC(=O)CNC)C(=O)N[C@H]1CSSC(C)(C)[C@@H](C(=O)N[C@H](C(=O)N2CCC[C@H]2C(N)=O)[C@@H](C)CC)NC(=O)[C@H]([C@@H](C)CC)NC(=O)[C@@H]2C[C@@H]3CCCC[C@@H]3N2C(=O)[C@@H]2CCCN2C(=O)[C@H](CC2(C)CC2)NC(=O)[C@H](CO)NC(=O)[C@H](CCCNC(=N)N)NC(=O)[C@H](CO)NC1=O
B7: G-((N-Me)I)-C+SRSLPPIC+IPD-OH (peptide)
peptide: G[NMeI]CSRSLPPICIPD-OH
modifications: disulfide 3-11; N-terminus assumed
SMILES: CC[C@H](C)[C@@H]1NC(=O)[C@@H]2CCCN2C(=O)[C@@H]2CCCN2C(=O)[C@H](CC(C)C)NC(=O)[C@H](CO)NC(=O)[C@H](CCCNC(=N)N)NC(=O)[C@H](CO)NC(=O)[C@@H](NC(=O)[C@H]([C@@H](C)CC)N(C)C(=O)CN)CSSC[C@@H](C(=O)N[C@H](C(=O)N2CCC[C@H]2C(=O)N[C@@H](CC(=O)O)C(=O)O)[C@@H](C)CC)NC1=O
B8: AIC+SRSLPP-(Cpg)-C+IPD-NH2 (peptide)
peptide: AICSRSLPP[Gly(cPent)]CIPD-NH2
modifications: disulfide 3-11; N-terminus assumed
SMILES: CC[C@H](C)[C@H](NC(=O)[C@H](C)N)C(=O)N[C@H]1CSSC[C@@H](C(=O)N[C@H](C(=O)N2CCC[C@H]2C(=O)N[C@@H](CC(=O)O)C(N)=O)[C@@H](C)CC)NC(=O)[C@H](C2CCCC2)NC(=O)[C@@H]2CCCN2C(=O)[C@@H]2CCCN2C(=O)[C@H](CC(C)C)NC(=O)[C@H](CO)NC(=O)[C@H](CCCNC(=N)N)NC(=O)[C@H](CO)NC1=O
B9: (Cyclopropylacetic acid)-IC+SRS-((tBu)A)-PPI-((N-Me)C)+I-NH2 (peptide)
peptide: {Cyclopropylacetic acid}-ICSRS[tBuAla]PPI[NMeC]I-NH2
modifications: disulfide 2-10
SMILES: CC[C@H](C)[C@H](NC(=O)[C@@H]1CSSC[C@H](NC(=O)[C@@H](NC(=O)CC2CC2)[C@@H](C)CC)C(=O)N[C@@H](CO)C(=O)N[C@@H](CCCNC(=N)N)C(=O)N[C@@H](CO)C(=O)N[C@@H](CC(C)(C)C)C(=O)N2CCC[C@H]2C(=O)N2CCC[C@H]2C(=O)N[C@@H]([C@@H](C)CC)C(=O)N1C)C(N)=O
B10: G-((N-Me)I)-C+SRSLPPIC+IPd-OH (peptide)
peptide: G[NMeI]CSRSLPPICIP[dD]-OH
modifications: disulfide 3-11; N-terminus assumed
SMILES: CC[C@H](C)[C@@H]1NC(=O)[C@@H]2CCCN2C(=O)[C@@H]2CCCN2C(=O)[C@H](CC(C)C)NC(=O)[C@H](CO)NC(=O)[C@H](CCCNC(=N)N)NC(=O)[C@H](CO)NC(=O)[C@@H](NC(=O)[C@H]([C@@H](C)CC)N(C)C(=O)CN)CSSC[C@@H](C(=O)N[C@H](C(=O)N2CCC[C@H]2C(=O)N[C@H](CC(=O)O)C(=O)O)[C@@H](C)CC)NC1=O
B11: (Tranexamic)-IC+SRS-((tBu)A)-PPI-(Pen)+IP-NH2 (peptide)
peptide: {Tranexamic″}-ICSRS[tBuAla]PPI[Pen]IP-NH2
modifications: disulfide 2-10
SMILES: CC[C@H](C)[C@@H]1NC(=O)[C@@H]2CCCN2C(=O)[C@@H]2CCCN2C(=O)[C@H](CC(C)(C)C)NC(=O)[C@H](CO)NC(=O)[C@H](CCCNC(=N)N)NC(=O)[C@H](CO)NC(=O)[C@@H](NC(=O)[C@@H](NC(=O)[C@H]2CC[C@@H](CN)CC2)[C@@H](C)CC)CSSC(C)(C)[C@@H](C(=O)N[C@H](C(=O)N2CCC[C@H]2C(N)=O)[C@@H](C)CC)NC1=O
B12: (Piperidin-4-ylacetic acid)-IC+SRS-((tBu)A)-PPI-((N-Me)C)+I-NH2 (peptide)
peptide: {Piperidin‑4‑ylacetic acid}-ICSRS[tBuAla]PPI[NMeC]I-NH2
modifications: disulfide 2-10
SMILES: CC[C@H](C)[C@H](NC(=O)[C@@H]1CSSC[C@H](NC(=O)[C@@H](NC(=O)CC2CCNCC2)[C@@H](C)CC)C(=O)N[C@@H](CO)C(=O)N[C@@H](CCCNC(=N)N)C(=O)N[C@@H](CO)C(=O)N[C@@H](CC(C)(C)C)C(=O)N2CCC[C@H]2C(=O)N2CCC[C@H]2C(=O)N[C@@H]([C@@H](C)CC)C(=O)N1C)C(N)=O
B13: AIC+SRSLP-(Oic)-(Chg)-C+IPD-NH2 (peptide)
peptide: AICSRSLP[Oic][Chg]CIPD-NH2
modifications: disulfide 3-11; N-terminus assumed
SMILES: CC[C@H](C)[C@H](NC(=O)[C@H](C)N)C(=O)N[C@H]1CSSC[C@@H](C(=O)N[C@H](C(=O)N2CCC[C@H]2C(=O)N[C@@H](CC(=O)O)C(N)=O)[C@@H](C)CC)NC(=O)[C@H](C2CCCCC2)NC(=O)[C@@H]2C[C@@H]3CCCC[C@@H]3N2C(=O)[C@@H]2CCCN2C(=O)[C@H](CC(C)C)NC(=O)[C@H](CO)NC(=O)[C@H](CCCNC(=N)N)NC(=O)[C@H](CO)NC1=O

These binders were tested against T1, Recombinant human MASP1 enzyme (fragment corresponding to amino acids 297-699, C-terminal His Tag) (human, UniProt P48740 297-699) (assay: cell-based or functional assay).
T1 sequence: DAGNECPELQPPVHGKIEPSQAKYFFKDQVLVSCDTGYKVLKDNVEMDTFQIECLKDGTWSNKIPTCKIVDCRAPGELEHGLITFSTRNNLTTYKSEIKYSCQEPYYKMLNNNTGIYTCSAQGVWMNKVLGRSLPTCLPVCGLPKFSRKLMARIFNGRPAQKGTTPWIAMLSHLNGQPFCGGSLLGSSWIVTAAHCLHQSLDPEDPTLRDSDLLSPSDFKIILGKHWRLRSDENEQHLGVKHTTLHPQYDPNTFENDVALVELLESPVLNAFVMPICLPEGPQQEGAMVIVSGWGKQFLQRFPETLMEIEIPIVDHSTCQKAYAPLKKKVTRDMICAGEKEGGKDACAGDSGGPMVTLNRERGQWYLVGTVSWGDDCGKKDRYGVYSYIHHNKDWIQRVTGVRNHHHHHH

Compared with B1, [Sar]ICSRSLP[Oic]I[Pen]IP-NH2 (disulfide 3-11; also: tartrate salt) [((N-Me)G)-IC+SRSLP-(Oic)-I-(Pen)+IP-NH2 (Tartrate)] is 11-fold lower in “human MASP1 IC50” value: 12 nM for the first, 1.1 nM for the second.

B2 and B3 are within 1.5-fold of each other in “human MASP1 IC50” value: 11 nM for the first, 10 nM for the second.

B4 and B5 are within 1.5-fold of each other in “human MASP1 IC50” value: 11 nM for the first, 10.1 nM for the second.

B6 and B7 are within 1.5-fold of each other in “human MASP1 IC50” value: 11 nM for the first, 14 nM for the second.

B8 and B9 are within 1.5-fold of each other in “human MASP1 IC50” value: 11 nM for the first, 13 nM for the second.

B10 and B11 are within 1.5-fold of each other in “human MASP1 IC50” value: 14 nM for the first, 12 nM for the second.

B12 and B13 are within 1.5-fold of each other in “human MASP1 IC50” value: 10 nM for the first, 12 nM for the second.

Each binder was assayed against Recombinant human MASP2 enzyme (fragment corresponding to amino acids 297-686, C-terminal His Tag) (human, UniProt O00187 297-686) (assay: cell-based or functional assay).
Chain of Recombinant human MASP2 enzyme (fragment corresponding to amino acids 297-686, C-terminal His Tag) (O00187 other isoform, or with tags, fused parts or gaps limits assumed): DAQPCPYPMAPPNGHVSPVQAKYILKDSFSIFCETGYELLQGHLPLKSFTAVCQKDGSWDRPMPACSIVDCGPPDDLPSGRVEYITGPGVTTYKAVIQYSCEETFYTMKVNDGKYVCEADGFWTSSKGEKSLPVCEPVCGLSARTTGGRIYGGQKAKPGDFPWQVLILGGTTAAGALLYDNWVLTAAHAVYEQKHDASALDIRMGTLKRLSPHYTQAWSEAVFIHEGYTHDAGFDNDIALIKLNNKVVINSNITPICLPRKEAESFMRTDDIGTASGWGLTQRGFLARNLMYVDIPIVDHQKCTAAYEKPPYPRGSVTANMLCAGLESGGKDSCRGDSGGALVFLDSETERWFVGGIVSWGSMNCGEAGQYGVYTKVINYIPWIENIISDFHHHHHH

First: B1
Second: [Sar]ICSRSLP[Oic]I[Pen]IP-NH2 (disulfide 3-11; also: tartrate salt) [((N-Me)G)-IC+SRSLP-(Oic)-I-(Pen)+IP-NH2 (Tartrate)]
The “human MASP2 IC50” value of the first is 11-fold higher: 370 nM for the first, 35 nM for the second.

Going from B2 to B3, the “human MASP2 IC50” value rises from 38 nM to 400 nM (11-fold).

Compared with B4, B5 is 2.2-fold higher in “human MASP2 IC50” value: 1200 nM for the first, 2700 nM for the second.

Going from B6 to B7, the “human MASP2 IC50” value rises from 57 nM to 1100 nM (19-fold).

First: B8
Second: B9
The “human MASP2 IC50” value of the first is 3.1-fold higher: 170 nM for the first, 55 nM for the second.

Going from B10 to B11, the “human MASP2 IC50” value falls from 1300 nM to 17 nM (76-fold).

First: B12
Second: B13
The “human MASP2 IC50” value of the first is 9.1-fold lower: 32 nM for the first, 290 nM for the second.
